Measurements taken from patent US7838288B2, “Modulators of odorant receptors” (Duke University, priority 2004, dated 2010).

How the values were obtained:
Assay type in all cases: cell-based, mouse
Conditions in all cases: accessory protein co-transfected in 293T cells
MOR203-1 = test: Living-cell staining of cell-surface MOR203-1
Text: After hypothesizing that mammalian ORs require accessory protein(s) for functional cell surface expression, a search was instituted for detecting such molecule(s). Long-SAGE (serial analysis of gene expression) libraries (see, e.g., Saha, S., et al., (2002) Nat Biotechnol 20, 508-512; herein incorporated by reference in its entirety) were constructed from single olfactory neurons as well as neurons from the vomeronasal organ and genes were collected that are expressed by these neurons. To identify candidate genes expressed by the olfactory neurons Digital Differential Display (see, e.g., http://www, followed by, .ncbi.nlm.nih.gov/UniGene/info_ddd.shtml) was also used. Candidate genes were investigated for ORFs that encode membrane associated proteins. Genes were selected with similarities to known chaperones and cloned the cDNAs from olfactory epithelium cDNAs. The mRNA expression of each gene was verified by in situ hybridization. After isolating and subcloning into mammalian expression vectors, each cDNA together with a mouse OR (MOR203-1) tagged with a 20 N-terminal amino acids of rhodopsin (Rho-tag), was transfected into 293T cells. We measured whether these clones had any effect on the cell-surface expression of ORs by staining living cells using antibodies against the Rho-tag (see, e.g., Laird, D. W., and Molday, R. S. (1988) Invest Opthalmol Vis Sci 29, 419-428; herein incorporated by reference in its entirety). When MOR203-1 was transfected alone, antibody staining detected only faint cell-surface expression in less than 1% of the cells. A schematic diagram outlining the screening procedure utilized with the present invention is provided at FIG. 1.
(§1) 293T cells were maintained in minimal essential medium containing 10% fetal bovine serum (M10). Lipofectamine 2000 (Invitrogen) was used for transfection. In live-cell staining, 16 hours after transfection, cells were incubated in M10 containing anti rhodopsin antibody, 4D2 (see, e.g., Laird, D. W., and Molday, R. S. (1988) Invest Opthalmol V is Sci 29, 419-428; herein incorporated by reference in its entirety) and 15 mM NaN3 at 4 degrees C. for 1 hour. After washing, cells were incubated with Cy3-conjugated anti mouse IgG (Jackson Immunologicals), washed and mounted. For FACS analysis, 4D2 and PE-conjugated anti mouse IgG (Jackson Immunologicals) were used to monitor the Rho tagged receptor expression. Anti HA rabbit antibodies (Sigma) and Alexa 488 conjugated anti rabbit IgG (Molecular Probes) was used to stain the HA-β2 adrenergic receptor. To establish the Hana3a cells, 1 ug/ml of puromycin was used for selection. 96 colonies were picked and assayed using luciferase assay using OREG.

OREG = test: Living-cell staining of cell-surface OREG
Experimental: The proteins encoded by these clones were named REEP1, for Receptor Expression Enhancing Protein 1 and RTP1, for Receptor Transporting Protein 1. Subsequently, RTP2 was found, a close relative of RTP1. […] Next, REEP1, RTP1, and RTP2 were tested to detect a similar effect in promoting cell-surface expression of other ORs. Four different ORs (mouse OREG, mouse olfr62, mouse OR-S46 and rat I7) were expressed in 293T cells with or without REEP1, RTP1, or RTP2. […] Additionally, ORs transfected with REEP and/or RTP generated more immunofluorescent cells and stronger signals in positive cells compared with ORs without REEP and/or RTP (see FIG. 2A). The signal intensity and the number of immunopositive cells varied when using different ORs at each condition. […] Nonetheless, occasional immunopositive cells were observed only when the accessory proteins were co-expressed. The effects of RTP1 or RTP2 were consistently more robust than that of REEP1. […]

23-1 = test: Living-cell staining of cell-surface 23-1
Experimental: as §1

B1: RTP1-A1: RTP1 variant from deleting portions of RTP1-A; murine SEQ ID NO: 46, human SEQ ID NO: 47 (protein, listed as Mus musculus)
chain: MCKSVTTGEWKKVFYEKMEEVKPADSWDFIIDPNLKHNVLAPGWKQYLELHASGRFHCSWCWHTWQSPHVVILFHMYLDKAQRAGSVRMRVFKQLCYECGTARLDESSMLEENIESLVDNLITSLREQCYGERGGHYRIHVASRQDNRRHRGEFCEACQEGIVHWKPSEKLLEEEATTYTFSRAPSPTKPQAETGSGCNFCSIPWCLFWATVLMLIIYLQFSFRTSV
Increased cell-surface staining: cell surface expression of MOR203-1 (MOR203-1) | cell-surface expression of OREG (OREG) | cell-surface expression of 23-1 (23-1)
